Assay results published in the Human Domainome abundance scans (Beltran et al. 2025).
± gives the uncertainty stated by the source.

B1: Homeobox protein cut-like 1, residues 548 to 629; numbered along this chain, P39880 (parent)
chain: GEEMDTAEIARQVKEQLIKHNIGQRIFGHYVLGLSQGSVSEILARPKPWNKLTVRGKEPFHKMKQFLSDEQNILALRSIQGR

Variants of: B1
Assay: abundance fitness (aPCA) (normalised: wild type 0, dead -1); higher = more abundant; growth selection in yeast, the domain comes from the species named
Settings: Homo sapiens

Compared with H20R, H20L is higher in abundance fitness: -0.464 ± 0.028 for the first, -0.361 ± 0.036 for the second.

First: H20S
Second: H20T
The abundance fitness of the first is higher: -0.398 ± 0.037 for the first, -0.608 ± 0.05 for the second.

R55D and R55F are within error of each other in abundance fitness: 0.027 ± 0.042 for the first, -0.041 ± 0.094 for the second.

R55W and R55V are within error of each other in abundance fitness: -0.095 ± 0.032 for the first, -0.06 ± 0.028 for the second.

R55C and Q36A are within error of each other in abundance fitness: -0.051 ± 0.055 for the first, 0.021 ± 0.026 for the second.

R82N and R82C are within error of each other in abundance fitness: 0.076 ± 0.089 for the first, -0.054 ± 0.076 for the second.

Compared with R82A, H61S is lower in abundance fitness: 0.013 ± 0.047 for the first, -0.137 ± 0.035 for the second.

H61I and H61F are within error of each other in abundance fitness: 0.075 ± 0.061 for the first, 0.069 ± 0.089 for the second.

H61W and Y30H are within error of each other in abundance fitness: -0.03 ± 0.029 for the first, 0.014 ± 0.052 for the second.

Compared with Y30M, Y30P is lower in abundance fitness: -0.122 ± 0.039 for the first, -0.742 ± 0.064 for the second.

Going from Y30I to Y30W, the abundance fitness falls from -0.024 ± 0.065 to -0.184 ± 0.03.

Going from N50H to N50V, the abundance fitness falls from -0.074 ± 0.098 to -0.309 ± 0.088.

N50M and N50Y are within error of each other in abundance fitness: -0.23 ± 0.11 for the first, -0.165 ± 0.13 for the second.

First: N50L
Second: L52N
The abundance fitness of the first is higher: -0.424 ± 0.092 for the first, -1.1 ± 0.29 for the second.

L52D and L52F are within error of each other in abundance fitness: -1.17 ± 0.23 for the first, -0.915 ± 0.14 for the second.

L52R and L52E are within error of each other in abundance fitness: -1.1 ± 0.097 for the first, -1.02 ± 0.15 for the second.

First: L52Q
Second: E8C
The abundance fitness of the first is lower: -0.825 ± 0.11 for the first, -0.219 ± 0.042 for the second.

Compared with E8F, E8Q is higher in abundance fitness: -0.22 ± 0.055 for the first, -0.104 ± 0.036 for the second.

First: E8L
Second: E8W
The abundance fitness of the first is higher: -0.091 ± 0.029 for the first, -0.231 ± 0.029 for the second.

E8K and G37P are within error of each other in abundance fitness: -0.113 ± 0.038 for the first, -0.084 ± 0.039 for the second.

G37A and G37Q are within error of each other in abundance fitness: 0.037 ± 0.029 for the first, 0.092 ± 0.035 for the second.

Going from G37I to G37L, the abundance fitness rises from -0.17 ± 0.074 to -0.022 ± 0.028.

First: G37M
Second: R25A
The abundance fitness of the first is lower: 0.002 ± 0.035 for the first, 0.102 ± 0.027 for the second.

Going from R25E to R25V, the abundance fitness falls from 0.158 ± 0.029 to -0.088 ± 0.027.

R25S and R25K are within error of each other in abundance fitness: 0.078 ± 0.03 for the first, 0.022 ± 0.042 for the second.

Compared with R25D, I79D is lower in abundance fitness: 0.138 ± 0.042 for the first, -0.233 ± 0.055 for the second.

I79C and E15Y are within error of each other in abundance fitness: 0.003 ± 0.055 for the first, -0.091 ± 0.14 for the second.

E15K and E15V are within error of each other in abundance fitness: -0.573 ± 0.33 for the first, -0.19 ± 0.077 for the second.

Going from F27L to F27K, the abundance fitness falls from -0.47 ± 0.039 to -0.99 ± 0.092.

Compared with F27Y, F27V is higher in abundance fitness: -1.15 ± 0.23 for the first, -0.815 ± 0.049 for the second.

First: L34C
Second: L34M
The abundance fitness of the first is lower: -0.047 ± 0.055 for the first, 0.09 ± 0.039 for the second.

L34A and L34D are within error of each other in abundance fitness: -0.228 ± 0.033 for the first, -0.274 ± 0.056 for the second.

Q71G and Q71T are within error of each other in abundance fitness: -0.037 ± 0.024 for the first, -0.011 ± 0.043 for the second.

Compared with Q71H, R77V is higher in abundance fitness: -0.16 ± 0.07 for the first, -0.035 ± 0.031 for the second.

First: R77F
Second: R77L
The abundance fitness of the first is lower: -0.511 ± 0.07 for the first, -0.073 ± 0.032 for the second.

Compared with N72V, N72K is higher in abundance fitness: -0.315 ± 0.033 for the first, -0.007 ± 0.039 for the second.

Compared with N72T, L67A is lower in abundance fitness: -0.115 ± 0.039 for the first, -0.736 ± 0.05 for the second.

Going from L67N to L67I, the abundance fitness rises from -0.582 ± 0.12 to -0.303 ± 0.1.

First: R45D
Second: R45H
The abundance fitness of the first is lower: -0.033 ± 0.047 for the first, 0.103 ± 0.056 for the second.

R45F and R45E are within error of each other in abundance fitness: 0.008 ± 0.05 for the first, -0.009 ± 0.031 for the second.

R45N and I18H are within error of each other in abundance fitness: -0.002 ± 0.058 for the first, -0.052 ± 0.072 for the second.

Going from I18K to I18G, the abundance fitness falls from 0.075 ± 0.038 to -0.105 ± 0.023.

First: I18S
Second: L32V
The abundance fitness of the first is higher: 0.014 ± 0.032 for the first, -0.41 ± 0.033 for the second.

L32S and L32Y are within error of each other in abundance fitness: -0.793 ± 0.054 for the first, -1.01 ± 0.21 for the second.

Compared with L32A, G28F is higher in abundance fitness: -0.732 ± 0.044 for the first, -0.329 ± 0.1 for the second.

Going from G28V to G28P, the abundance fitness falls from -0.452 ± 0.034 to -0.726 ± 0.069.

G28N and G28C are within error of each other in abundance fitness: -0.259 ± 0.075 for the first, -0.223 ± 0.051 for the second.

First: Q65A
Second: Q65P
The abundance fitness of the first is higher: -0.02 ± 0.028 for the first, -0.933 ± 0.092 for the second.

Compared with P48Q, P48E is higher in abundance fitness: -0.247 ± 0.038 for the first, -0.126 ± 0.031 for the second.

Compared with P48W, P48A is higher in abundance fitness: -0.325 ± 0.033 for the first, -0.119 ± 0.028 for the second.

First: Q24G
Second: Q24I
The abundance fitness of the first is lower: -0.386 ± 0.026 for the first, -0.032 ± 0.079 for the second.

Compared with Q24C, Q24H is higher in abundance fitness: -0.108 ± 0.055 for the first, 0.021 ± 0.059 for the second.

P46G and P46F are within error of each other in abundance fitness: -0.77 ± 0.034 for the first, -0.725 ± 0.12 for the second.

P46H and P46Y are within error of each other in abundance fitness: -0.746 ± 0.12 for the first, -0.594 ± 0.081 for the second.

First: P46V
Second: I73W
The abundance fitness of the first is lower: -0.37 ± 0.028 for the first, 0.05 ± 0.032 for the second.

Compared with I73A, I73N is lower in abundance fitness: -0.019 ± 0.032 for the first, -0.51 ± 0.075 for the second.

First: I73D
Second: A7L
The abundance fitness of the first is lower: -0.745 ± 0.088 for the first, -0.082 ± 0.031 for the second.

Compared with G33K, G33S is lower in abundance fitness: -0.217 ± 0.039 for the first, -0.297 ± 0.035 for the second.

First: G33E
Second: N21W
The abundance fitness of the first is higher: -0.312 ± 0.033 for the first, -0.759 ± 0.053 for the second.

Going from N21P to N21F, the abundance fitness rises from -0.72 ± 0.063 to -0.534 ± 0.12.

Compared with N21V, N21I is lower in abundance fitness: -0.518 ± 0.033 for the first, -1.06 ± 0.19 for the second.

Compared with N21E, S68V is lower in abundance fitness: -0.04 ± 0.028 for the first, -0.304 ± 0.032 for the second.

S68Y and S68I are within error of each other in abundance fitness: -0.297 ± 0.068 for the first, -0.198 ± 0.06 for the second.

First: S68E
Second: K19C
The abundance fitness of the first is higher: 0.013 ± 0.036 for the first, -0.363 ± 0.053 for the second.

K19I and K19Y are within error of each other in abundance fitness: -0.244 ± 0.095 for the first, -0.242 ± 0.12 for the second.

K19R and E70S are within error of each other in abundance fitness: -0.117 ± 0.024 for the first, -0.083 ± 0.032 for the second.

Compared with E70I, E70D is higher in abundance fitness: -0.187 ± 0.057 for the first, -0.043 ± 0.042 for the second.

Going from E70A to E70L, the abundance fitness falls from -0.026 ± 0.031 to -0.307 ± 0.035.

E70Y and A10T are within error of each other in abundance fitness: -0.152 ± 0.058 for the first, -0.08 ± 0.037 for the second.

Compared with A10G, A10N is lower in abundance fitness: -0.552 ± 0.029 for the first, -0.692 ± 0.099 for the second.

Compared with A10H, E3A is higher in abundance fitness: -1.24 ± 0.26 for the first, -0.064 ± 0.029 for the second.

E3H and E3D are within error of each other in abundance fitness: -0.027 ± 0.061 for the first, 0.001 ± 0.042 for the second.

E3N and E3R are within error of each other in abundance fitness: -0.119 ± 0.073 for the first, -0.145 ± 0.025 for the second.

M63G and M63R are within error of each other in abundance fitness: -1.04 ± 0.045 for the first, -1 ± 0.05 for the second.

M63D and M63K are within error of each other in abundance fitness: -0.949 ± 0.11 for the first, -0.992 ± 0.074 for the second.

Going from M63A to M63N, the abundance fitness falls from -0.677 ± 0.043 to -1.16 ± 0.19.

First: M63H
Second: G1W
The abundance fitness of the first is lower: -1.13 ± 0.21 for the first, -0.172 ± 0.049 for the second.

G1T and G1F are within error of each other in abundance fitness: -0.035 ± 0.064 for the first, -0.104 ± 0.19 for the second.

G1N and G1I are within error of each other in abundance fitness: -0.012 ± 0.11 for the first, 0.049 ± 0.17 for the second.

First: G23H
Second: G23I
The abundance fitness of the first is higher: -0.009 ± 0.067 for the first, -0.309 ± 0.085 for the second.

Compared with G23S, K57L is lower in abundance fitness: 0.023 ± 0.032 for the first, -0.288 ± 0.034 for the second.

Compared with K57R, K57I is lower in abundance fitness: 0.013 ± 0.023 for the first, -0.284 ± 0.082 for the second.

K57V and K57E are within error of each other in abundance fitness: -0.455 ± 0.034 for the first, -0.476 ± 0.036 for the second.

K57M showed an abundance fitness of -0.152 ± 0.041.
